Reference: patent US20210246218A1 (LYVGEN BIOPHARMA SUZHOU, published 2021)

Key:
[1] = biological target: T1, recombinant human CD137 receptor protein (human, UniProt Q07011 24-186); test: ELISA, clone 3712-IgG1v coated, huCD137 titrated (EC50 is a concentration of the CD137 protein); full sigmoid, plateau about 1.9
T1 construct: Coated on ELISA plates; also called recombinant human CD137 protein

[2] = biological target: T2, human FcγRIIIA-Phe158 on CHO-K1 cells (human, UniProt P08637 17-254); test: flow cytometry on CHO-huFcγRIIIA cells, PE anti-human Fc F(ab')2
T2 construct: whole, on cells; also called CHO-K1-huFcγRIIIA-Phe158; CHO-huFcγIIIA
Protocol: The plate was mixed and incubated in the dark for 2 hours at 4° C.

huCD137-C6His = biological target: T3, huCD137-C6His (human, UniProt Q07011 24-186); test: SPR (Biacore T200), huCD137-C6His immobilised, antibody as analyte, 1:1 model, 25 °C
T3 construct: Immobilised by amine coupling on the sensor chip; also called human CD137 protein (Biacore ligand); not shown: C-terminal 6xHis tag by the name C6His
Protocol: Flow cells of a CMS sensor chip (GE Healthcare Life Sciences) were activated with freshly mixed 50 mmol/L NHS and 200 mmol/L EDC for 420 seconds (10 μL/min). Then, huCD137-C6His in 10 mmol/L NaAC (pH 5.0) was injected onto the activated flow cell (10 μL/min) with HBS-EP (10 mM HEPES, 150 mM NaCl, 3 mM EDTA and 0.05% P20, pH 7.4) as the running buffer. The remaining active coupling sites were blocked with a 420 second injection of 1 mol/L ethanolamine The measurement was performed under 25° C., and HBS-EP was used as the running buffer. An injection of a tested analyte and surface regeneration of the CMS sensor chip were included in each running cycle. […] Buffer flow was maintained for approximately 180 seconds for dissociation. To remove the tested antibodies, an injection of 10 mM glycine-HCl for approximately 30 seconds was used for regeneration. The above procedures were repeated for each concentration of serially diluted tested antibody. The raw data of the surface plasmon resonance experiments were evaluated using Biacore T200 evaluation software 3.1 with a 1:1 binding model. Flow cell 1 was used as the reference flow cell.

Ly052 [3] = biological target: T4, Ly052; test: ELISA, clone 3712-IgG1v coated, CD137 protein titrated (EC50 is a concentration of the CD137 protein); curve rises only above about 1000 ng/mL to about 0.61 at 100000 ng/mL, no plateau seen
T4 chain: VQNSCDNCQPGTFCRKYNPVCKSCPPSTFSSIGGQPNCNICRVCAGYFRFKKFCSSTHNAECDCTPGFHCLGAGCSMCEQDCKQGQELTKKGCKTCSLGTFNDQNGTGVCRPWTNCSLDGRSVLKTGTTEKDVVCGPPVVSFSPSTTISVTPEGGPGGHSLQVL
Protocol: (§1) The plate was decanted and washed once; assay diluent was added 200 μL/well. After one-hour incubation at room temperature, the plate was washed with PBST one time. CD137 receptor human/mouse chimeras were diluted in assay diluent to 100 or 10 μg/mL, and then a 4-fold serial dilution in assay diluent for 11 points to final concentrations of 100000, 25000, 6250, 1562.5, 390.63, 97.66, 24.41, 6.10, 1.53, 0.38 and 0.095 ng/mL or 10000, 2500, 625, 156.25, 39.06, 9.77, 2.44, 0.61, 0.15, 0.038 and 0.0095 ng/mL. The diluted CD137 receptor was added to the assay plate, 50 μL/well, in duplicate. The plate was incubated one hour at room temperature and then washed three times with PBST. Goat anti-human IgG-H+L HRP conjugated at 1:100,000 20 dilution was added to the plate at 100 μL/well. The plate was then incubated one hour at room temperature followed by washing with PBST four times. The TMB substrate solution was added at 100 μL/well. The color was allowed to develop for 15 minutes, and was stopped with 100 μL/well 2N H2SO4. Absorbance at 450 nm and 620 nm was determined by a Tecan F200 Pro reader.

Ly052 [4] = biological target: T4, Ly052; test: ELISA, CD137 protein coated, clone 3712 titrated; flat curve (see non_binding)
Protocol: (§2) For the data shown in FIGS. 16C-D, chimeric CD137 receptor protein samples were diluted in DPBS to 5 μg/mL and then coated onto an ELISA plate (Corning, Catalog number: 9018, high binding) at 50 μL (0.25 μg) per well, and incubated at 4° C. overnight. The plate was decanted and washed once; assay diluent was added at 200 μL/well. After a 1-hour incubation at room temperature, the plate was washed with PBST one time. […] The plate was incubated 1 hour at room temperature and then washed three times with PBST. Goat anti-human IgG-H+L HRP-conjugated at 1:100,000 dilution or goat anti-mouse IgG (H+L) secondary antibody, HRP, 10 at 1:50,000 dilution was added to the plate at 100 μL/well. The plate was incubated 1 hour at room temperature followed by washing with PBST four times. The TMB substrate solution was added 100 μL/well. The color was permitted to develop for 15 minutes and then 100 μL/well 2N H2SO4 was added to terminate the reaction. Absorbance at 450 nm and 620 nm was determined by a Tecan F200 Pro reader.

Ly051 = biological target: T5, Ly051; test: ELISA, clone 3712-IgG1v coated, CD137 protein titrated (EC50 is a concentration of the CD137 protein); curve only begins to rise: about 0.42 at 100000 ng/mL, no plateau, fit marked ~
T5 chain: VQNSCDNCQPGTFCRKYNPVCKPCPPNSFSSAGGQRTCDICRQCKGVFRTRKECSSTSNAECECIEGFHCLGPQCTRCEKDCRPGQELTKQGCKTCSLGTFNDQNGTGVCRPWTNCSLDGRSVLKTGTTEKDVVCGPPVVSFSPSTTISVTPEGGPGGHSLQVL
Protocol: as §1

Ly110 = biological target: T6, Ly110; test: ELISA, CD137 protein coated, clone 3712 titrated; sigmoid with a low plateau of about 0.45 (huCD137 about 1.5)
T6 chain: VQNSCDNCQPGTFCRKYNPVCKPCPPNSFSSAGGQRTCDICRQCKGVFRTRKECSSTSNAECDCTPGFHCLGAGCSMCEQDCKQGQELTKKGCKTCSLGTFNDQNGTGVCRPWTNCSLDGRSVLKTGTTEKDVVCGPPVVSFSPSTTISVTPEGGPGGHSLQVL
Protocol: as §2

T3 sequence (Q07011 24-186): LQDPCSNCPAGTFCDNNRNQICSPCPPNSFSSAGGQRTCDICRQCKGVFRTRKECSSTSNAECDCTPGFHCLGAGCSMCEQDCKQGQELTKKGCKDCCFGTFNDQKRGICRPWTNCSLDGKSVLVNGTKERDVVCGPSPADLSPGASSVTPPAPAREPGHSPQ
T2 sequence (P08637 17-254): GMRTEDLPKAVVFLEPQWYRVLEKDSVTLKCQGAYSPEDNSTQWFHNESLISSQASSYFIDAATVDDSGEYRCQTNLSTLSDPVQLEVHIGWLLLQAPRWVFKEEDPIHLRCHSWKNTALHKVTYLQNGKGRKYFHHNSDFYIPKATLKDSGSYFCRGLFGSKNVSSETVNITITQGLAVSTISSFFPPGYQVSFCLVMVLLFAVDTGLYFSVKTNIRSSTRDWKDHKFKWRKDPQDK
T1 sequence (Q07011 24-186 limits assumed): as the sequence (Q07011 24-186) above

B1: Clone 3712-IgG1v (IgG1v/kappa) (antibody)
heavy: QVQLVQSGAEVKKPGASVKVSCKASGYTFAGFEMHWVRQAPGQGLEWMGAIDPKTGGTDYNQKFKDRVTMTRDTSISTAYMELSRLRSDDTAVYYCARDLGYFDVWGQGTLVTVSSASTKGPSVFPLAPSSKSTSGGTAALGCLVKDYFPEPVTVSWNSGALTSGVHTFPAVLQSSGLYSLSSVVTVPSSSLGTQTYICNVNHKPSNTKVDKKVEPKSCDKTHTCPPCPAPELLGPSVFLFPPKPKDTLMISRTPEVTCVVVDVEHEDPEVKFNWYVDGVEVHNAKTKPREEQYNSTYRVVSVLTVLHQDWLNGKEYKCKVSNKALPAPIEKTISKAKGQPREPQVYTLPPSREEMTKNQVSLTCLVKGFYPSDIAVEWESNGQPENNYKTTPPVLDSDGSFFLYSKLTVDKSRWQQGNVFSCSVMHEALHNHYTQKSLSLSPGK
light: DIQMTQSPSSLSASVGDRVTITCRASQDIRSNLNWYQQKPGGAVKLLIYYTSRLHSGVPSRFSGSGSGTDYTLTISSLQPEDFATYFCQQSEKLPRTFGGGTKVEIRRTVAAPSVFIFPPSDEQLKSGTASVVCLLNNFYPREAKVQWKVDNALQSGNSQESVTEQDSKDSTYSLSSTLTLSKADYEKHKVYACEVTHQGLSSPVTKSFNRGEC
notes: copies: 2 + 2
For B1, the EC50 [1] was 0.0562 µg/mL, the binding result [2] was “no binding (tested: 100 µg/mL)” and the Kd (huCD137-C6His) was 18.9 nM. For the same binder, the koff (huCD137-C6His) was 0.0138 s⁻¹, the kon (huCD137-C6His) was 730000 M⁻¹ s⁻¹ and the EC50 (Ly052 [3]) was 29.5 µg/mL. It also gave an EC50 (Ly052 [4]) of 0.000749 µg/mL, an EC50 (Ly051) of roughly 466 µg/mL and an EC50 (Ly110) of 0.0578 µg/mL.
